Results from the RNAGym collection of RNA variant scans (doi:10.7554/elife.80360).

B1: Hairpin Ribozyme (parent)
chain: GUCCUCUUUCACGUGCGCGUGAAAGAGAGAAGUGAACCAGAGAAACACACGUUGUGGUAUAUUACCUGGUA

Variants of: B1
Assay: self-cleavage, relative activity (ratio to wild type); higher = more cleavage; co-transcriptional
Variant A30U G32C has a self-cleavage of 0.132.
For A30U U53C, the self-cleavage was 0.041.
A30C U52A gave a self-cleavage of 0.214.
A30C U52C gave a self-cleavage of 0.133.
Work on A30C A49G yielded a self-cleavage of 0.123.
With A30C A49C the self-cleavage was 0.0983.
For A30C A49U, the self-cleavage was 0.154.
In the case of G29C G68U, the self-cleavage is reported as 0.125.
Work on A30U G40C yielded a self-cleavage of 0.13.
For A31U G34U, the self-cleavage was 0.167.
A31U G42C showed a self-cleavage of 0.0816.
Work on A30U A71C yielded a self-cleavage of 0.299.
Variant A30U A71U has a self-cleavage of 0.101.
For A30C G69A, the self-cleavage was 0.0574.
In the case of A30C G69C, the self-cleavage is reported as 0.318.
For G29U A44G, the self-cleavage was 0.142.
In the case of A31C G40C, the self-cleavage is reported as 0.0931.
A31U A39G showed a self-cleavage of 0.0984.
For A30C U62C, the self-cleavage was 0.0331.
Work on A30U G42A yielded a self-cleavage of 0.11.
A31C A59U gave a self-cleavage of 0.108.
In the case of A30C U55C, the self-cleavage is reported as 0.161.
Work on A30C U55A yielded a self-cleavage of 0.146.
A31G U53G showed a self-cleavage of 0.495.
For A31G G51U, the self-cleavage was 0.599.
In the case of A31U U53G, the self-cleavage is reported as 0.122.
In the case of A31U U53A, the self-cleavage is reported as 0.026.
Work on A31G C38G yielded a self-cleavage of 0.0773.
A31G C38U gave a self-cleavage of 0.272.
A30C U58A gave a self-cleavage of 0.134.
A30C U58G showed a self-cleavage of 0.103.
A30G C46U showed a self-cleavage of 0.236.
For A31U G68A, the self-cleavage was 0.157.
A31C G54A showed a self-cleavage of 0.152.
A30U A39C showed a self-cleavage of 0.111.
In the case of A30U A39G, the self-cleavage is reported as 0.0918.
With A30U A39U the self-cleavage was 0.0553.
In the case of A31G G34A, the self-cleavage is reported as 1.12.
A30G G57U showed a self-cleavage of 0.0464.
For A30G G57A, the self-cleavage was 0.0803.
For G29U U60G, the self-cleavage was 0.17.
For A30U U70A, the self-cleavage was 0.0595.
A30U U70C showed a self-cleavage of 0.123.
For A31G A39C, the self-cleavage was 0.253.
A31G A39U showed a self-cleavage of 0.105.
Work on A31U U63A yielded a self-cleavage of 0.0279.
For A31U U63G, the self-cleavage was 0.0484.
A31U A59C gave a self-cleavage of 0.0285.
For A31U A59U, the self-cleavage was 0.201.
For A31G A64G, the self-cleavage was 0.284.
A31G A64C gave a self-cleavage of 0.0777.
A30U A41G gave a self-cleavage of 0.106.
In the case of G29C A35G, the self-cleavage is reported as 0.178.
Variant A30G G54C has a self-cleavage of 0.178.
For G29U C50G, the self-cleavage was 0.184.
Variant G29U C50A has a self-cleavage of 0.113.
G29C U60A gave a self-cleavage of 0.139.
In the case of G29C U60C, the self-cleavage is reported as 0.164.
With G29C A45U the self-cleavage was 0.122.
In the case of G29C A45G, the self-cleavage is reported as 0.106.
G29C U62A gave a self-cleavage of 0.13.
G29C U62G showed a self-cleavage of 0.18.
For A31G C50G, the self-cleavage was 0.176.
A31G C50U showed a self-cleavage of 0.266.
Work on A30G U53G yielded a self-cleavage of 0.157.
G29U G56C showed a self-cleavage of 0.162.
For A31C G57A, the self-cleavage was 0.107.
Variant A31C G57U has a self-cleavage of 0.0476.
For A31C G57C, the self-cleavage was 0.189.
For G29C A30U, the self-cleavage was 0.0915.
With G29C A30G the self-cleavage was 0.218.
With G29C U67A the self-cleavage was 0.179.
G29U A31C gave a self-cleavage of 0.2.
With G29U A31G the self-cleavage was 0.167.
G29U A31U showed a self-cleavage of 0.151.
A31U A64G gave a self-cleavage of 0.0407.
Work on A30C U70G yielded a self-cleavage of 0.0924.
Variant G29C A47G has a self-cleavage of 0.0858.
For G29C A47C, the self-cleavage was 0.15.
With A31G U33A the self-cleavage was 0.165.
A31G U33C showed a self-cleavage of 0.0729.
Work on A30G U70G yielded a self-cleavage of 0.262.
A30G U70A gave a self-cleavage of 0.0747.
For A30G U70C, the self-cleavage was 0.0846.
G29C A49G showed a self-cleavage of 0.178.
With G29C A49U the self-cleavage was 0.109.
Work on A30U A59G yielded a self-cleavage of 0.187.
Variant A30U A59U has a self-cleavage of 0.0496.
Work on A31C U63A yielded a self-cleavage of 0.162.
For A31G A59C, the self-cleavage was 0.173.
In the case of A30G G40A, the self-cleavage is reported as 0.0732.
Variant G29U A39G has a self-cleavage of 0.0986.
For G29U A39U, the self-cleavage was 0.0632.
For A30C C66U, the self-cleavage was 0.169.
Variant A31G U55A has a self-cleavage of 0.105.
For A30G C65A, the self-cleavage was 0.148.
Variant A30G C65G has a self-cleavage of 0.204.
A31C G51A gave a self-cleavage of 0.179.
Work on A30U A36U yielded a self-cleavage of 0.0371.
For A31G A71U, the self-cleavage was 0.396.
With A31C G32C the self-cleavage was 0.228.
In the case of G29U U62C, the self-cleavage is reported as 0.0779.
G29U U62A showed a self-cleavage of 0.103.
A30U G68U gave a self-cleavage of 0.207.
In the case of A30U G68C, the self-cleavage is reported as 0.118.
In the case of A30U G68A, the self-cleavage is reported as 0.0299.
With G29C U55G the self-cleavage was 0.0655.
In the case of A31G U62A, the self-cleavage is reported as 0.127.
A30G C37A showed a self-cleavage of 0.192.
In the case of A31G A35G, the self-cleavage is reported as 0.662.
A31G A35U showed a self-cleavage of 0.378.
With G29C A61U the self-cleavage was 0.0566.
G29C A61G showed a self-cleavage of 0.135.
A30G A31G showed a self-cleavage of 0.157.
Variant A30U C48A has a self-cleavage of 0.209.
With A30U C48G the self-cleavage was 0.118.
G29U A43G gave a self-cleavage of 0.134.
With A30U G51A the self-cleavage was 0.104.
A31G U52C showed a self-cleavage of 0.508.
In the case of A31G U52A, the self-cleavage is reported as 0.764.
Variant A31G U52G has a self-cleavage of 0.4.
A30C A41G showed a self-cleavage of 0.
Variant G29U G69C has a self-cleavage of 0.0911.
Work on G29U G69A yielded a self-cleavage of 0.105.
G29U U53C showed a self-cleavage of 0.197.
Variant G29C U52G has a self-cleavage of 0.0183.
Work on G29C U52A yielded a self-cleavage of 0.129.
For A30G A59U, the self-cleavage was 0.305.
A30C A45U showed a self-cleavage of 0.0541.
For A30C A45G, the self-cleavage was 0.194.
With G29U U52G the self-cleavage was 0.0467.
For G29A U63C, the self-cleavage was 0.0755.
In the case of G29U A41C, the self-cleavage is reported as 0.217.
In the case of G29U C46U, the self-cleavage is reported as 0.124.
Variant G29U C46A has a self-cleavage of 0.089.
For G29C G56A, the self-cleavage was 0.0331.
With G29C G56C the self-cleavage was 0.0545.
In the case of A30G C38U, the self-cleavage is reported as 0.21.
G29C A64C showed a self-cleavage of 0.133.
With G29C A64G the self-cleavage was 0.124.
With A31C C65G the self-cleavage was 0.116.
For A31G U67C, the self-cleavage was 0.118.
A31U G54C gave a self-cleavage of 0.119.
In the case of A31C A39C, the self-cleavage is reported as 0.173.
A31C G56U gave a self-cleavage of 0.182.
In the case of A31C G56C, the self-cleavage is reported as 0.115.
G29U G68U showed a self-cleavage of 0.176.
Variant A30C A36U has a self-cleavage of 0.122.
Variant A31U U55G has a self-cleavage of 0.089.
In the case of G29C G69C, the self-cleavage is reported as 0.0776.
A30C G57U showed a self-cleavage of 0.266.
For G29C G34C, the self-cleavage was 0.116.
Work on A31U G51C yielded a self-cleavage of 0.15.
In the case of A30G A41G, the self-cleavage is reported as 0.112.
A30U A49C gave a self-cleavage of 0.111.
A30U A44U showed a self-cleavage of 0.16.
A31C U62C gave a self-cleavage of 0.0677.
A30C C37A showed a self-cleavage of 0.0529.
Variant A31U C38G has a self-cleavage of 0.
For G29U U58G, the self-cleavage was 0.168.
Variant G29C C48G has a self-cleavage of 0.0534.
G29C C37U gave a self-cleavage of 0.121.
For A31C A61C, the self-cleavage was 0.194.
For A31C A61U, the self-cleavage was 0.0706.
G29C A36G showed a self-cleavage of 0.18.
G29U A49G showed a self-cleavage of 0.173.
For G29U A49C, the self-cleavage was 0.14.
